{
  "source": "paper PMC6676893",
  "about": "(Biochemistry, 2019)",
  "key": {"SEC": {"molecular_target": "the molecule itself", "test": "SEC"}, "crystal structure": {"molecular_target": "the molecule itself", "test": "crystal structure"}},
  "data": [
    {"protein": "Escherichia coli SufS R92A (enzyme, E. coli, persulfide on C364 (as isolated; crystallographic occupancy 0.84); PLP, internal aldimine with K226) MIFSVDKVRADFPVLSREVNGLPLAYLDSAASAQKPSQVIDAEAEFYRHGYAAVHRGIHTLSAQATEKMENVRKRASLFINARSAEELVFVAGTTEGINLVANSWGNSNVRAGDNIIISQMEHHANIVPWQMLCARVGAELRVIPLNPDGTLQLETLPTLFDEKTRLLAITHVSNVLGTENPLAEMITLAHQHGAKVLVDGAQAVMHHPVDVQALDCDFYVFSGHKLYGPTGIGILYVKEALLQEMPPWEGGGSMIATVSLSEGTTWTKAPWRFEAGTPNTGGIIGLGAALEYVSALGLNNIAEYEQNLMHYALSQLESVPDLTLYGPQNRLGVIAFNLGKHHAYDVGSFLDNYGIAVRTGHHCAMPLMAYYNVPAMCRASLAMYNTHEEVDRLVTGLQRIHRLLG", "values": [
      {"measurement": "stoichiometry N", "setting": "SEC", "value": 2}
    ]},
    {"protein": "Escherichia coli SufS E96A (enzyme, E. coli, persulfide on C364 (as isolated; crystallographic occupancy 0.80); PLP, internal aldimine with K226) MIFSVDKVRADFPVLSREVNGLPLAYLDSAASAQKPSQVIDAEAEFYRHGYAAVHRGIHTLSAQATEKMENVRKRASLFINARSAEELVFVRGTTAGINLVANSWGNSNVRAGDNIIISQMEHHANIVPWQMLCARVGAELRVIPLNPDGTLQLETLPTLFDEKTRLLAITHVSNVLGTENPLAEMITLAHQHGAKVLVDGAQAVMHHPVDVQALDCDFYVFSGHKLYGPTGIGILYVKEALLQEMPPWEGGGSMIATVSLSEGTTWTKAPWRFEAGTPNTGGIIGLGAALEYVSALGLNNIAEYEQNLMHYALSQLESVPDLTLYGPQNRLGVIAFNLGKHHAYDVGSFLDNYGIAVRTGHHCAMPLMAYYNVPAMCRASLAMYNTHEEVDRLVTGLQRIHRLLG", "values": [
      {"measurement": "stoichiometry N", "setting": "SEC", "value": 2}
    ]},
    {"protein": "Escherichia coli SufS E250A (enzyme, E. coli, persulfide on C364 (as isolated; crystallographic occupancy 0.63); PLP, internal aldimine with K226) MIFSVDKVRADFPVLSREVNGLPLAYLDSAASAQKPSQVIDAEAEFYRHGYAAVHRGIHTLSAQATEKMENVRKRASLFINARSAEELVFVRGTTEGINLVANSWGNSNVRAGDNIIISQMEHHANIVPWQMLCARVGAELRVIPLNPDGTLQLETLPTLFDEKTRLLAITHVSNVLGTENPLAEMITLAHQHGAKVLVDGAQAVMHHPVDVQALDCDFYVFSGHKLYGPTGIGILYVKEALLQEMPPWAGGGSMIATVSLSEGTTWTKAPWRFEAGTPNTGGIIGLGAALEYVSALGLNNIAEYEQNLMHYALSQLESVPDLTLYGPQNRLGVIAFNLGKHHAYDVGSFLDNYGIAVRTGHHCAMPLMAYYNVPAMCRASLAMYNTHEEVDRLVTGLQRIHRLLG", "values": [
      {"measurement": "stoichiometry N", "setting": "SEC", "value": 2}
    ]},
    {"protein": "Escherichia coli SufS H55A (enzyme, E. coli, persulfide on C364 (as isolated; crystallographic occupancy 0.66); PLP, internal aldimine with K226) MIFSVDKVRADFPVLSREVNGLPLAYLDSAASAQKPSQVIDAEAEFYRHGYAAVARGIHTLSAQATEKMENVRKRASLFINARSAEELVFVRGTTEGINLVANSWGNSNVRAGDNIIISQMEHHANIVPWQMLCARVGAELRVIPLNPDGTLQLETLPTLFDEKTRLLAITHVSNVLGTENPLAEMITLAHQHGAKVLVDGAQAVMHHPVDVQALDCDFYVFSGHKLYGPTGIGILYVKEALLQEMPPWEGGGSMIATVSLSEGTTWTKAPWRFEAGTPNTGGIIGLGAALEYVSALGLNNIAEYEQNLMHYALSQLESVPDLTLYGPQNRLGVIAFNLGKHHAYDVGSFLDNYGIAVRTGHHCAMPLMAYYNVPAMCRASLAMYNTHEEVDRLVTGLQRIHRLLG", "values": [
      {"measurement": "binding result", "setting": "crystal structure", "value": "binds"}
    ]}
  ]
}
